Results taken from IntAct's records for PubMed 32066962.

B1: Repressor of RNA polymerase III transcription MAF1 (Saccharomyces cerevisiae), P41910 (parent)
chain: MKFIDELDIERVNQTLNFETNDCKIVGSCDIFTTKAVASDRKLYKTIDQHLDTILQENENYNATLQQQLAAPETNQSPCSSPFYSNRRDSNSFWEQKRRISFSEYNSNNNTNNSNGNSSNNNNYSGPNGSSPATFPKSAKLNDQNLKELVSNYDSGSMSSSSLDSSSKNDERIRRRSSSSISSFKSGKSSNNNYSSGTATNNVNKRRKSSINERPSNLSLGPFGPINEPSSRKIFAYLIAILNASYPDHDFSSVEPTDFVKTSLKTFISKFENTLYSLGRQPEEWVWEVINSHMTLSDCVLFQYSPSNSFLEDEPGYLWNLIGFLYNRKRKRVAYLYLICSRLNSSTGEVEDALAKKPQGKLIIDDGSNEYEGEYDFTYDENVIDDKSDQEESLQ
partner: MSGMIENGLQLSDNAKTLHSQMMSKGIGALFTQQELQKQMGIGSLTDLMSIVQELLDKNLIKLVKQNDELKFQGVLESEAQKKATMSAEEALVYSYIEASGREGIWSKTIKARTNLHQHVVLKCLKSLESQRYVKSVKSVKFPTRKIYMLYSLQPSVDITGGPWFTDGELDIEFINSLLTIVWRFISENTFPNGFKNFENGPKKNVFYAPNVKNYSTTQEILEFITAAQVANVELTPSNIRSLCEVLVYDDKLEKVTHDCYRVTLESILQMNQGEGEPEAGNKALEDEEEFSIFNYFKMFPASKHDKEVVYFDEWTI

Variants of: B1
Settings: with rpc6_yeast RPC34, P32910

| effect of a mutation on the interaction | Variant |
| --- | --- |
| disrupting interaction strength | MKFIDELDIERVNQTLNFETNDCKIVGSCDIFTTKAVASDRKLYKTIDQHLDTILQENENYNATLQQQLAAPETNQSPCSSPFYSNRRDSNSFWEQKRRISFSEYNSNNNTNNSNGNSSNNNNYSGPNGSSPATFPKSAKLNDQNLKELVSNYDSGSMSSSSLDSSSKNDERIRRRSSSSISSFKSGKSSNNNYSSGTATNNVNKRRKSSINERPSNLSLGPFGPINEPSSRKIFAYLIAILNASYPAHAFSSVEPTDFVKTSLKTFISKFENTLYSLGRQPEEWVWEVINSHMTLSDCVLFQYSPSNSFLEDEPGYLWNLIGFLYNRKRKRVAYLYLICSRLNSSTGEVEDALAKKPQGKLIIDDGSNEYEGEYDFTYDENVIDDKSDQEESLQ [D248A;D250A] |
| with no effect | MKFIDELDIERVNQTLNFETNDCKIVGSCDIFEEKAVASDRKLYKTIDQHLDTILQENENYNATLQQQLAAPETNQSPCSSPFYSNRRDSNSFWEQKRRISFSEYNSNNNTNNSNGNSSNNNNYSGPNGSSPATFPKSAKLNDQNLKELVSNYDSGSMSSSSLDSSSKNDERIRRRSSSSISSFKSGKSSNNNYSSGTATNNVNKRRKSSINERPSNLSLGPFGPINEPSSRKIFAYLIAILNASYPDHDFSSVEPTDFVKTSLKTFISKFENTLYSLGRQPEEWVWEVINSHMTLSDCVLFQYSPSNSFLEDEPGYLWNLIGFLYNRKRKRVAYLYLICSRLNSSTGEVEDALAKKPQGKLIIDDGSNEYEGEYDFTYDENVIDDKSDQEESLQ [T33E;T34E] |
| with no effect | MKFIDELDIERVNQTLNFETNDCKIVGSCDIFTTKAVASDRKLYKTIDQHLDTILQENENYNATLQQQLAAPETNQSPCSSPFYSNRRDSNSFWEQKRRISFSEYNSNNNTNNSNGNSSNNNNYSGPNGSSPATFPKSAKLNDQNLKELVSNYDSGSMSSSSLDSSSKNDERIRRRSSSSISSFKSGKSSNNNYSSGTATNNVNKRRKSSINERPSNLSLGPFGPINEPSSRKIFAYLIAILNASYPDHDFSSVEPTDFVKTSLKTFISKFENTLYSLGRQPEEWVWEVINSHMTLSDCVLFQYSPSNSFLEDEPGYSSNLIGFLYNRKRKRVAYLYLICSRLNSSTGEVEDALAKKPQGKLIIDDGSNEYEGEYDFTYDENVIDDKSDQEESLQ [L318S;W319S] |
